Consider two substances from US20130018010A1, “POLYMERIC CONJUGATES OF ADENINE NUCLEOSIDE ANALOGS” (ENZON PHARMACEUTICALS, INC., priority 2010, published 2013).

A short description of data set [1]: Hydrolysis rate of PEG conjugates in rat plasma (HPLC). Type of data set: in vitro ADME. The settings on record: 37° C., disappearance of PEG derivative. As to the method:
The rates of hydrolysis were obtained by employing a C18 reversed phase column (Jupiter®) using a gradient mobile phase consisting of (a) 0.05 M TFA buffer and (b) acetonitrile. A flow rate of 1 mL/min was used, and chromatograms were monitored using a UV detector at 260 nm for toyocamycin. For hydrolysis in plasma, the derivatives were dissolved in acetonitrile/MeOH at a concentration of 20 mg/mL. The solution was divided into vials with 100 μL and the solvent removed in vacuo. To the residue, 100 μL of plasma was added, then vortexed for 10 sec. The solutions were incubated at 37° C. for various periods of time. A mixture of methanol-acetonitrile (1:1, v/v, 400 μL) was added to a vial at the proper interval and the mixture was vortexed for 1 min, followed by filtration through […] filter membrane. An aliquot of 40 μL of the filtrate was injected into the HPLC. On the basis of the peak area, the amounts of native compound and PEG conjugates were estimated, and the half-life of each compound in different media was calculated using linear regression analysis from the disappearance of PEG derivative.
The rate of hydrolysis was measured by monitoring disappearance of polymer conjugates and appearance of the parent molecule by HPLC using the procedure for example as described in Example 4 in PBS and in rat plasma.

In data set [2] the test system is human melanoma cells (A375). Nature of the data set: Tumor growth inhibition in mice xenografted with human melanoma. Type of data set: in vivo. The note with it: for tumor growth inhibition: 1 or 5 mg/kg/dose (toyocamycin equivalent) at day 1, 5, 9, 13, compared to toyocamycin i.v. 5 mg/kg/dose, FIG. 18; for tail vein necrosis: 1 or 5 mg/kg/dose at day 1, 5, 9, 13; for effectiveness in the treatment of melanoma: versus untreated, toyocamycin, or 54. As to the method:
The antitumor efficacies of compounds 6, 10, and 54 evaluated in human melanoma xenografted mice. Xenograft tumors were established in mice by injecting human melanoma cells (A375). The mice were treated with toyocamycin i.v. at 5 mg/kg/dose, or compounds 6, 10, and 54 at 1 or 5 mg/kg/dose (based on the amount of toyocamycin) at day 1, 5, 9, and 13. Control group mice received saline solution.
A general note: In xenograft studies the graft and the host belong to different species.

Consider “40 k 4-Arm PEG-Carbamate-Aib-Toyocamycin [Compound 10]”, for which, in data set [1], the “t1/2 in rat plasma” value stood at 4.1 h. Also, in data set [2], the tumor growth inhibition entry is on record as “inhibited tumor growth significantly compared to toyocamycin”; the tail vein necrosis entry is reported as “observed in only one mouse”; the “effectiveness in the treatment of melanoma” value was “more effective in the treatment of melanoma than untreated, toyocamycin, or 54”.
In the case of “40 k 4-Arm PEG-carbamate-Leu-Toyocamycin [Compound 6]”, in data set [1], the “t1/2 in rat plasma” value is 0.033 h. Besides, in data set [2], the tumor growth inhibition entry is reported as “inhibited tumor growth significantly compared to toyocamycin”; the tail vein necrosis entry is reported as “observed in only one mouse”; the “effectiveness in the treatment of melanoma” value is recorded as “more effective in the treatment of melanoma than untreated, toyocamycin, or 54”.
